Source: patent publication US20180155451A1 (published 2018)

B1: GpH7-B3 variant S267_18N/GpL16-k0 (antibody, human IgG1, kappa)
heavy: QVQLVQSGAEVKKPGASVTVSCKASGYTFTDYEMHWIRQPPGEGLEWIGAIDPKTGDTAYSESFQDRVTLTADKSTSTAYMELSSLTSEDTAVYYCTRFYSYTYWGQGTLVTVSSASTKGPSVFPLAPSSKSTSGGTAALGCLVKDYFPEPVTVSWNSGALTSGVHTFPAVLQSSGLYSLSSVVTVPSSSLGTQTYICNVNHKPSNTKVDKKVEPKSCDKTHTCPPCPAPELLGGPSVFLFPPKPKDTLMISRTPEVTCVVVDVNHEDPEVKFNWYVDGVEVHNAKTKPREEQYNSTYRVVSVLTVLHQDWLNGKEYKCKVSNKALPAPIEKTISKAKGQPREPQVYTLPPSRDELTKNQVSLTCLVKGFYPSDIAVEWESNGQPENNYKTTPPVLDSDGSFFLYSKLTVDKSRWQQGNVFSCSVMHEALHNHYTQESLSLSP
light: DIVMTQSPLSLPVTPGEPASISCQASESLVHSNRNTYLHWYLQKPGQSPQLLIYKVSNRFSGVPDRFSGSGSGTDFTLKISRVEAEDVGVYYCSQNTHVPPTFGQGTKVEIERTVAAPSVFIFPPSDEQLKSGTASVVCLLNNFYPREAKVQWKVDNALQSGNSQESVTEQDSKDSTYSLSSTLTLSKADYEKHKVYACEVTHQGLSSPVTKSFNRGEC
notes: homodimerized antibody, mutation in both H chains; also called S267_18N Ho Ab
B2: GpH7-B3 variant S324_10E/GpL16-k0 (antibody, human IgG1, kappa)
heavy: not shown
light: B1 light
notes: homodimerized antibody, mutation in both H chains; also called S324_10E Ho Ab
B3: GpH7-B3 variant Y296_02A/GpL16-k0 (antibody, human IgG1, kappa)
heavy: not shown
light: B1 light
notes: homodimerized antibody, mutation in both H chains; also called Y296_02A Ho Ab
B4: GpH7-B3 variant S337_16H/GpL16-k0 (antibody, human IgG1, kappa)
heavy: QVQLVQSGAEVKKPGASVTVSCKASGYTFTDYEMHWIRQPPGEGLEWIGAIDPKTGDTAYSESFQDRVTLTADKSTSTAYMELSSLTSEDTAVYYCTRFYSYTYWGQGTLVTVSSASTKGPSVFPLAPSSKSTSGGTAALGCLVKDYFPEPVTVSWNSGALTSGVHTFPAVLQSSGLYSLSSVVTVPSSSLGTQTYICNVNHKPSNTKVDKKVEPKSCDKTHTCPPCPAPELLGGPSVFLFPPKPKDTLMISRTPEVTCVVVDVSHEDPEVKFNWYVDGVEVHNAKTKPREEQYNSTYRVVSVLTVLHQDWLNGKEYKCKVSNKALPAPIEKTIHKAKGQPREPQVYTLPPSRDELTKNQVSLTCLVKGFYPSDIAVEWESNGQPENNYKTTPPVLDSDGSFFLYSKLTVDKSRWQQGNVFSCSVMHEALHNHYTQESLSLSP
light: B1 light
notes: homodimerized antibody, mutation in both H chains; also called S337_16H Ho Ab
B5: GpH7-B3 variant S267_19Q/GpL16-k0 (antibody, human IgG1, kappa)
heavy: not shown
light: B1 light
notes: homodimerized antibody, mutation in both H chains; also called S267_19Q Ho Ab
B6: GpH7-B3 variant T335_13S/GpL16-k0 (antibody, human IgG1, kappa)
heavy: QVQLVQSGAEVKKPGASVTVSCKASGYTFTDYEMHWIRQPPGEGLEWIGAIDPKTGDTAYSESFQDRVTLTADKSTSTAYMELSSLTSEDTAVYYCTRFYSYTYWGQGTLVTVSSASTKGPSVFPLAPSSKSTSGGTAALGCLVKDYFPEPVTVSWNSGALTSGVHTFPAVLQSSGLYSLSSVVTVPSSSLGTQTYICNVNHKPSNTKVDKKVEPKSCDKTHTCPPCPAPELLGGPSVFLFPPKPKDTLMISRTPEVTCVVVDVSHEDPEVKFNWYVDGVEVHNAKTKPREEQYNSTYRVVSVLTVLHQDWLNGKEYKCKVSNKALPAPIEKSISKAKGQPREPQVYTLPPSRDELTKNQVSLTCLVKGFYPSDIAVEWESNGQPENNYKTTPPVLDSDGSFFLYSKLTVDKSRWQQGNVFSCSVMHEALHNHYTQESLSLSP
light: B1 light
notes: homodimerized antibody, mutation in both H chains; also called T335_13S Ho Ab
B7: GpH7-B3 variant S337_11K/GpL16-k0 (antibody, human IgG1, kappa)
heavy: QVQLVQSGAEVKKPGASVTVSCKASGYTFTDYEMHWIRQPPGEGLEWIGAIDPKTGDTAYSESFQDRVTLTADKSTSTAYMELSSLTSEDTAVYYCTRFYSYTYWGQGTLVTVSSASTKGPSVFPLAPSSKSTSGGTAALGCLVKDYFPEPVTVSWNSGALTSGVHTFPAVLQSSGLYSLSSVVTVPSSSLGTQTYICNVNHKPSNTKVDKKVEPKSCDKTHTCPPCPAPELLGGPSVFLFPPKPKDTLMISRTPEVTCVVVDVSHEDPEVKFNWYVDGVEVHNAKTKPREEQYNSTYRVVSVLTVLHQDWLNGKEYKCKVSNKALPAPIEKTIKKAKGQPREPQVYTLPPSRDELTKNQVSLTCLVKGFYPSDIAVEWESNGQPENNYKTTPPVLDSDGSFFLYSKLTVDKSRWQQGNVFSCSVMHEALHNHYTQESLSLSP
light: B1 light
notes: homodimerized antibody, mutation in both H chains; also called S337_11K Ho Ab
B8: GpH7-B3 variant Y300_07I/GpL16-k0 (antibody, human IgG1, kappa)
heavy: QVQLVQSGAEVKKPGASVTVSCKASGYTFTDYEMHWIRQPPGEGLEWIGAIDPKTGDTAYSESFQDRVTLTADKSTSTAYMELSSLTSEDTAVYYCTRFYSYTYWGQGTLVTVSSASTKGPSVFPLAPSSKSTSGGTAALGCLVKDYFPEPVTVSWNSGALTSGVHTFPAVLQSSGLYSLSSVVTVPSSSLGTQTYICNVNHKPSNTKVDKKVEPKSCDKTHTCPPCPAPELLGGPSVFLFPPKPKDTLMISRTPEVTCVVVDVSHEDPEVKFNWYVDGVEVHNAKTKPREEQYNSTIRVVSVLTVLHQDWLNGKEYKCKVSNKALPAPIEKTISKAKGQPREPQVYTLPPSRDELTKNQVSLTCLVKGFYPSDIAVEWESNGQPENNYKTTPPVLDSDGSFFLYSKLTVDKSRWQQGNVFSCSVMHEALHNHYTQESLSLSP
light: B1 light
notes: homodimerized antibody, mutation in both H chains; also called Y300_07I Ho Ab
B9: GpH7-B3 variant T335_01G/GpL16-k0 (antibody, human IgG1, kappa)
heavy: not shown
light: B1 light
notes: homodimerized antibody, mutation in both H chains; also called T335_01G Ho Ab
B10: GpH7-B3 variant Y296_08L/GpL16-k0 (antibody, human IgG1, kappa)
heavy: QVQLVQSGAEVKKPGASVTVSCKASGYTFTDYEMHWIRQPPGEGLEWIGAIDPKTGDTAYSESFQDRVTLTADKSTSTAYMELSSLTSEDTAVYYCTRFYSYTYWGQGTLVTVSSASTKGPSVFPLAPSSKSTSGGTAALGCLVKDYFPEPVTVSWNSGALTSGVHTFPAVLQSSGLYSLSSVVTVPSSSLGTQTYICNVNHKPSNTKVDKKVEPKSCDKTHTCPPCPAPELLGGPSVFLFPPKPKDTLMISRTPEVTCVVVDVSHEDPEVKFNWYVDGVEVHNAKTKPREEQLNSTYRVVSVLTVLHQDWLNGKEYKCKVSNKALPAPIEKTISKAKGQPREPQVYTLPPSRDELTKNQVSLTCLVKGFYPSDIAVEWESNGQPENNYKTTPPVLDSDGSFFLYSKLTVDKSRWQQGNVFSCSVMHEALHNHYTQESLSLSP
light: B1 light
notes: homodimerized antibody, mutation in both H chains; also called Y296_08L Ho Ab
B11: GpH7-B3 variant Y300_16H/GpL16-k0 (antibody, human IgG1, kappa)
heavy: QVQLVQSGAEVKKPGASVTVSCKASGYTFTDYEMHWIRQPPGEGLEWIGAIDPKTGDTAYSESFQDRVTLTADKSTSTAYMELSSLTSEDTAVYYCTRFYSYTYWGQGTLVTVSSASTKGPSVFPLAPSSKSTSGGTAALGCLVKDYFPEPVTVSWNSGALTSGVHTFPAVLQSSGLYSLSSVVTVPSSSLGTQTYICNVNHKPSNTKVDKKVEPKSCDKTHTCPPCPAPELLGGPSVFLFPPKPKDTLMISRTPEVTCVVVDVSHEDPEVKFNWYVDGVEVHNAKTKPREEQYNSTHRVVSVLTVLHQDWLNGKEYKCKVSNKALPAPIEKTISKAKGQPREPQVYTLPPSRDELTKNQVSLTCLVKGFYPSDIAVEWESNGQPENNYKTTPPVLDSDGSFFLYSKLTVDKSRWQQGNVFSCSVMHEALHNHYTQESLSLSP
light: B1 light
notes: homodimerized antibody, mutation in both H chains; also called Y300_16H Ho Ab
B12: GpH7-B3 variant T335_02A/GpL16-k0 (antibody, human IgG1, kappa)
heavy: not shown
light: B1 light
notes: homodimerized antibody, mutation in both H chains; also called T335_02A Ho Ab
B13: GpH7-B3 variant S337_14T/GpL16-k0 (antibody, human IgG1, kappa)
heavy: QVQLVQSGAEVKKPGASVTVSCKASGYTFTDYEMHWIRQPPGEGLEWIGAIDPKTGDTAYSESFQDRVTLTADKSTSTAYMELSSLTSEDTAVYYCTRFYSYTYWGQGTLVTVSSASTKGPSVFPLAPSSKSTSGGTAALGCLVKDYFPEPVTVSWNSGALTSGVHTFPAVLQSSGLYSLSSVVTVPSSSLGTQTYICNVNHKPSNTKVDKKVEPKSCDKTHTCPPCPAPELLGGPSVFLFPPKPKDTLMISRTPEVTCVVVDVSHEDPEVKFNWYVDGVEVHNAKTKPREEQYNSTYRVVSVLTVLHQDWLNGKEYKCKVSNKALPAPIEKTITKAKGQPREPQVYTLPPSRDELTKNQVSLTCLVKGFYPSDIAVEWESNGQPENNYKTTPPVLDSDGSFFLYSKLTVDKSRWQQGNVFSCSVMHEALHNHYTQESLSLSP
light: B1 light
notes: homodimerized antibody, mutation in both H chains; also called S337_14T Ho Ab
B14: GpH7-B3 variant S337_18N/GpL16-k0 (antibody, human IgG1, kappa)
heavy: not shown
light: B1 light
notes: homodimerized antibody, mutation in both H chains; also called S337_18N Ho Ab
B15: GpH7-B3 variant Y296_07I/GpL16-k0 (antibody, human IgG1, kappa)
heavy: not shown
light: B1 light
notes: homodimerized antibody, mutation in both H chains; also called Y296_07I Ho Ab
B16: GpH7-B3 variant S298_09D/GpL16-k0 (antibody, human IgG1, kappa)
heavy: not shown
light: B1 light
notes: homodimerized antibody, mutation in both H chains; also called S298_09D Ho Ab
B17: GpH7-B3 variant S324_09D/GpL16-k0 (antibody, human IgG1, kappa)
heavy: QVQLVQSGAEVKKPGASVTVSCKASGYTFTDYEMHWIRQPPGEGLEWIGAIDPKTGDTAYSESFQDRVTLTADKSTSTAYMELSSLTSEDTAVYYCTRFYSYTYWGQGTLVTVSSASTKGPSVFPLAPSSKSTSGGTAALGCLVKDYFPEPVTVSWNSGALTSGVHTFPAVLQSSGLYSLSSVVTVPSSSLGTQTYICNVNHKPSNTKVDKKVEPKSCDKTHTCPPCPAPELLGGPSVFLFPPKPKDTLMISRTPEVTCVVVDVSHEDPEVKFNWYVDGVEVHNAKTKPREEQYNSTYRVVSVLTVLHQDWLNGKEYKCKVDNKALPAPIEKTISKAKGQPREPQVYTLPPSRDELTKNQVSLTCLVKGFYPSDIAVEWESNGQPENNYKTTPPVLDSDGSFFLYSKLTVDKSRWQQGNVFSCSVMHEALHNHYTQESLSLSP
light: B1 light
notes: homodimerized antibody, mutation in both H chains; also called S324_09D Ho Ab
B18: GpH7-B3 variant Y296_03V/GpL16-k0 (antibody, human IgG1, kappa)
heavy: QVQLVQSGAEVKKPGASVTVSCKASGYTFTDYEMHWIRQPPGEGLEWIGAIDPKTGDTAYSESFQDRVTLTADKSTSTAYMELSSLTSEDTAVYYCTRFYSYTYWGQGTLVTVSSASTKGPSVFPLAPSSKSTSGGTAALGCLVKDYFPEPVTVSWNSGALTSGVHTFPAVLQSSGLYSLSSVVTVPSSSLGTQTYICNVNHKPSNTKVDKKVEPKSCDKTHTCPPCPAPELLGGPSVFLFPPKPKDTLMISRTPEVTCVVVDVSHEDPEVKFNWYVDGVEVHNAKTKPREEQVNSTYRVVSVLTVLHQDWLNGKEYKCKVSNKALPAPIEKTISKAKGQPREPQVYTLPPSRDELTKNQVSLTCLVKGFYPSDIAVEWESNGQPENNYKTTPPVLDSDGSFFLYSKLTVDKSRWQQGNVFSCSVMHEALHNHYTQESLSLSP
light: B1 light
notes: homodimerized antibody, mutation in both H chains; also called Y296_03V Ho Ab
B19: GpH7-A5/GpH7-B3 variant K334_01G/GpL16-k0 (antibody, human IgG1, kappa)
heavy 1: not shown
heavy 2: not shown
light: B1 light
notes: heterodimerized antibody, mutation in one H chain only; also called K334_01G He Ab
B20: GpH7-A5/GpH7-B3 variant S267_18N/GpL16-k0 (antibody, human IgG1, kappa)
heavy 1: not shown
heavy 2: not shown
light: B1 light
notes: heterodimerized antibody, mutation in one H chain only; also called S267_18N He Ab
B21: GpH7-A5/GpH7-B3 variant S267_06M/GpL16-k0 (antibody, human IgG1, kappa)
heavy 1: not shown
heavy 2: not shown
light: B1 light
notes: heterodimerized antibody, mutation in one H chain only; also called S267_06M He Ab
B22: GpH7-A5/GpH7-B3 variant P271_10E/GpL16-k0 (antibody, human IgG1, kappa)
heavy 1: not shown
heavy 2: not shown
light: B1 light
notes: heterodimerized antibody, mutation in one H chain only; also called P271_10E He Ab
B23: GpH7-A5/GpH7-B3 variant K326_19Q/GpL16-k0 (antibody, human IgG1, kappa)
heavy 1: not shown
heavy 2: not shown
light: B1 light
notes: heterodimerized antibody, mutation in one H chain only; also called K326_19Q He Ab
B24: GpH7-A5/GpH7-B3 variant S267_19Q/GpL16-k0 (antibody, human IgG1, kappa)
heavy 1: not shown
heavy 2: not shown
light: B1 light
notes: heterodimerized antibody, mutation in one H chain only; also called S267_19Q He Ab
B25: GpH7-A5/GpH7-B3 variant K326_08L/GpL16-k0 (antibody, human IgG1, kappa)
heavy 1: not shown
heavy 2: not shown
light: B1 light
notes: heterodimerized antibody, mutation in one H chain only; also called K326_08L He Ab
B26: GpH7-A5/GpH7-B3 variant K334_02A/GpL16-k0 (antibody, human IgG1, kappa)
heavy 1: not shown
heavy 2: not shown
light: B1 light
notes: heterodimerized antibody, mutation in one H chain only; also called K334_02A He Ab
B27: GpH7-A5/GpH7-B3 variant K334_13S/GpL16-k0 (antibody, human IgG1, kappa)
heavy 1: not shown
heavy 2: not shown
light: B1 light
notes: heterodimerized antibody, mutation in one H chain only; also called K334_13S He Ab
B28: GpH7-A5/GpH7-B3 variant K334_16H/GpL16-k0 (antibody, human IgG1, kappa)
heavy 1: not shown
heavy 2: not shown
light: B1 light
notes: heterodimerized antibody, mutation in one H chain only; also called K334_16H He Ab
B29: GpH7-A5/GpH7-B3 variant P271_01G/GpL16-k0 (antibody, human IgG1, kappa)
heavy 1: not shown
heavy 2: not shown
light: B1 light
notes: heterodimerized antibody, mutation in one H chain only; also called P271_01G He Ab

Biological target: T1, FcγRIa extracellular domain with C-terminal His tag (human, UniProt P12314 16-292)
T1 construct: extracellular domain; soluble analyte in Biacore; also called FcgRI; CD64
T1 sequence (P12314 16-292): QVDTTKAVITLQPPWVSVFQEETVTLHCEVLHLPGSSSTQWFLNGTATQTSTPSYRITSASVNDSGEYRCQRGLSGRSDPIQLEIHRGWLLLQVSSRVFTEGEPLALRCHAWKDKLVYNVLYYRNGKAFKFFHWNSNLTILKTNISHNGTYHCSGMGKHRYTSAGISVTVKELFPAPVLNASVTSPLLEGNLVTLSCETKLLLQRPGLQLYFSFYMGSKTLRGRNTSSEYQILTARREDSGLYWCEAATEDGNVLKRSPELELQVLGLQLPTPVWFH
Experiment: SPR (Biacore), relative FcγRIa binding, GpH7-B3/GpL16-k0 (HoCon Ab) = 100

Ho/Con_1a | Binder
107 % of control | B1
106 % of control | B2
103 % of control | B3
105 % of control | B4
104 % of control | B5
105 % of control | B6
105 % of control | B7
109 % of control | B8
106 % of control | B9
105 % of control | B10
111 % of control | B11
105 % of control | B12
106 % of control | B13
106 % of control | B14
106 % of control | B15
106 % of control | B16
106 % of control | B17
104 % of control | B18

Biological target: T1, FcγRIa extracellular domain with …
Experiment: SPR (Biacore), relative FcγRIa binding, GpH7-A5/GpH7-B3/GpL16-k0 (HeCon Ab) = 100

He/Con_1a | Binder
104 % of control | B19
102 % of control | B20
106 % of control | B21
103 % of control | B22
102 % of control | B23
102 % of control | B24
100 % of control | B25
106 % of control | B26
105 % of control | B27
105 % of control | B28
105 % of control | B29
